What was measured:
[1] = molecular target: Cluc‐PtoE2Fa (Populus tomentosa); test: split reporter (BiFC, NanoBiT); LCI of Cluc-PtoE2Fa with PtoDPb1^Hap1/Hap2-Nluc in young N. benthamiana leaves with co-expressed PtoWAK106-GFP (compared with GFP)
[2] = molecular target: Cluc‐PtoE2Fa (Populus tomentosa); test: split reporter (BiFC, NanoBiT); luciferase complementation imaging (LCI): firefly luciferase complementation (Nluc / Cluc fusions) in young N. benthamiana leaves; three biological replicates
[3] = molecular target: Cluc‐PtoWAK106 (Populus tomentosa); test: as above

Row | fold increase in luciferase activity with PtoWAK106-GFP against GFP [1] [fold] | luciferase intensity with PtoWAK106-GFP, percent higher than with PtoDPb1^Hap2 [1] [%] | luciferase activity, percent stronger than with PtoDPb1^Hap2 [2] [%] | luciferase activity, percent higher than with PtoDPb1^Hap2 [3] [%] | Substance
1 | 3.61 | 47.3 | 85.8 | 37 | PtoDPb1^Hap1‐Nluc (natural protein)
2 | 3.8 |  |  |  | PtoDPb1^Hap2‐Nluc (natural protein)
